This is an account of results in publication PMC3817407.

“And” between values parts separate entries of the source, which are not always exact repeats. Identical values can stand only once.

The target in one assay is T1, ECF35_3582.
T1 chain: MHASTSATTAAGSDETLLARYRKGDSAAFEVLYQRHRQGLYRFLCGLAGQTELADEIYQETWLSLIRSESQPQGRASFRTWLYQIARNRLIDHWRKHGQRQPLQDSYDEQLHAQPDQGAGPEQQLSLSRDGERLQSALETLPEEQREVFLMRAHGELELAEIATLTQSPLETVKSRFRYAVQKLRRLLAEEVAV

The next assay concerns the target T2, ECF15_436.
T2 chain: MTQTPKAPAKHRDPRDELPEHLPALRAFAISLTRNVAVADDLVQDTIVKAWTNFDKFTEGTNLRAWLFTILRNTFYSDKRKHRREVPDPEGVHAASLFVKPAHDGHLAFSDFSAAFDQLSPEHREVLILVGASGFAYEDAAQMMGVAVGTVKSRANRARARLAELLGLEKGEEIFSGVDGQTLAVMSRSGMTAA

In another assay the target is T3, ECF01_3473.
T3 chain: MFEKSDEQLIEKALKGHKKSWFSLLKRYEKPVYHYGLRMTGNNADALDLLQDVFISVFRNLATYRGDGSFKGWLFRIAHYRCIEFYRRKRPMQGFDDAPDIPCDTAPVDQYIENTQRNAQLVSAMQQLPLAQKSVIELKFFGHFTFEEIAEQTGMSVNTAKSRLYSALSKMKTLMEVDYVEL

The target of a further assay is T4, ECF25_1643.
T4 chain: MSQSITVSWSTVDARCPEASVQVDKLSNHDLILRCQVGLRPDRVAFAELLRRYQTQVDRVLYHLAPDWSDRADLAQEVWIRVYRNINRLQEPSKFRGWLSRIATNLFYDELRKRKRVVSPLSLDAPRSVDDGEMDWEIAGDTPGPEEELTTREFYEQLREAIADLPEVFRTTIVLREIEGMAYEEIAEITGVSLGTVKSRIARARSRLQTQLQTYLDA

A further assay addresses T5, ECF17_1458.
T5 chain: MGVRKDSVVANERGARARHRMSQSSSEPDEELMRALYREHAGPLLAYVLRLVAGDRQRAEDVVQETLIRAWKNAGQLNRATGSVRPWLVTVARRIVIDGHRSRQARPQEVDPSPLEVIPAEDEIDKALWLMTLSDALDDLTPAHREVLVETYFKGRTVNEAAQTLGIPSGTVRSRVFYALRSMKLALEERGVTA

Another assay deals with T6, ECF02_915.
T6 chain: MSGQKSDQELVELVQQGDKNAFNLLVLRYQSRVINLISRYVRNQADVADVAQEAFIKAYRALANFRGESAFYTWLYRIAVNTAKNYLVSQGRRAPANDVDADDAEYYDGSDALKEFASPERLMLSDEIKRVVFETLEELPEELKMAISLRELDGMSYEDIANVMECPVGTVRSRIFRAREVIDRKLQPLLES

For a further assay, the target named is T7, ECF11_987.
T7 chain: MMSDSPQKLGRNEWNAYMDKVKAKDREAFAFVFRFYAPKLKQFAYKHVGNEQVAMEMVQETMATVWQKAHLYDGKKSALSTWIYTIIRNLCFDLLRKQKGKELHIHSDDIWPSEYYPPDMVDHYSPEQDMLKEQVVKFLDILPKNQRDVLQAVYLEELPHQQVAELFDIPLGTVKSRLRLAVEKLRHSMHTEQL

The next assay deals with T8, ECF12_807.
T8 chain: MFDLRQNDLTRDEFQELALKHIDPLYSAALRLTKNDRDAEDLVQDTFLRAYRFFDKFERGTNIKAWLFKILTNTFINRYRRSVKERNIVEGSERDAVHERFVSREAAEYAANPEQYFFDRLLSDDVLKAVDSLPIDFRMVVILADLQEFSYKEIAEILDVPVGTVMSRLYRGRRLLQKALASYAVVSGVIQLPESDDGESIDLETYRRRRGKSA

A further assay addresses T9, ECF20_992.
T9 chain: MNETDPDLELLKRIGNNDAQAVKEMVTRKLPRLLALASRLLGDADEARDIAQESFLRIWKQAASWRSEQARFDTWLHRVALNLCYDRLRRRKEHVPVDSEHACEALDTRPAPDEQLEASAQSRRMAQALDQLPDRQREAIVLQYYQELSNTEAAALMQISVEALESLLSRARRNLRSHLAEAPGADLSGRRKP

In a further assay the target is T10, ECF17_1691.
T10 chain: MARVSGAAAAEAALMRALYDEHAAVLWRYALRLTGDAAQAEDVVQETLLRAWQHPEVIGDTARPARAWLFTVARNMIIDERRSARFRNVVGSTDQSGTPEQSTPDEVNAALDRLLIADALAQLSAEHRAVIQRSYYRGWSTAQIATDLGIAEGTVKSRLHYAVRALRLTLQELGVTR

The next assay addresses T11, ECF31_34.
T11 chain: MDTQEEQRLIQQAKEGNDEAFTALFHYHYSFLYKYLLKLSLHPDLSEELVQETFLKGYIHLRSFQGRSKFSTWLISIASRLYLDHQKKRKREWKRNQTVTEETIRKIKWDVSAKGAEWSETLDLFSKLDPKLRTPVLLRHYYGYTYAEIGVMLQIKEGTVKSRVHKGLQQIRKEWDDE

For the next assay, the target named is T12, ECF22_1147.
T12 chain: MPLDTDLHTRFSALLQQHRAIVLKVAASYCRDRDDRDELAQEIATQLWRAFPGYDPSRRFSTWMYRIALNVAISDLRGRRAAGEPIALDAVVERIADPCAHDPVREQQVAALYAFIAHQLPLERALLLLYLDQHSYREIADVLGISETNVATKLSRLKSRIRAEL

The next assay concerns the target T13, ECF14_1324.
T13 chain: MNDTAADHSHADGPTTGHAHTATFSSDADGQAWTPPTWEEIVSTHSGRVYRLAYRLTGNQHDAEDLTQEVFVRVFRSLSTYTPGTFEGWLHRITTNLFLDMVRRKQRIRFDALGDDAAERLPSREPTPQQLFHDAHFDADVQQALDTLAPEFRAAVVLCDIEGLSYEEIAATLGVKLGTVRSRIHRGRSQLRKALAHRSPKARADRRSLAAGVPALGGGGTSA

The next assay deals with T14, ECF22_4450.
T14 chain: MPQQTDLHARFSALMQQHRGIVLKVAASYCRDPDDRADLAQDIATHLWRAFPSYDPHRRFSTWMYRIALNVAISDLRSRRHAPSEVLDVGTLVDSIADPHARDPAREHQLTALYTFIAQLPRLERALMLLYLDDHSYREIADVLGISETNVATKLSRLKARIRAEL

B1: AS20_992 (protein)
chain: MTPERFVHLADAYGADLQRWPSAERAAAQALLDCGDAQAVAALRQAHWLDSQLDRYQVPAPSPALAQRIIAAAQQPGAPFWSRYAGWLASLGWVGVGLTGVAAGMLAVALSLPLSTSAEALPSVFDQSDAEFVLSINAEEAEQ
In the case of B1, the fold repression with ECF35_3582 is 1.6; with ECF15_436, 1.32; with ECF26_4464, 2.04; with ECF01_3473, 2.3; with ECF25_1643 it was 1.63 and 1.33; in the assay with ECF17_1458, 1.5. Besides, the fold repression with ECF02_915 came to 1.93; with ECF11_987, 2.81; in the assay with ECF12_807, 1.4; in the assay with ECF20_992, 169; with ECF17_1691, 2.05; in the assay with ECF31_34, 1.96. The fold repression stood at 2.47 with ECF22_1147, 1.64 with ECF14_1324 and 2.29 with ECF22_4450.

B2: AS02_915 (protein)
chain: MEKTGQEWVSASVDGETDRQTLAELAADTDSHAKWQRYHLMGDAMRDELPQAMPLDLSARIAAALEDEPTILAPKVEREATQAPSRAVVVPFMRQLGQYGIAAAVALMAVVGVQNYQSTQDDAPLPVLNTRPLVGTATPVSLQTGPVANQNQGNANDQLLEQRRRINAYLQDHMLQQRLNTGAVVDDNSEVTPIPVNR
Consider B2, for which the fold repression was 2.65 with ECF35_3582; 3.47 with ECF15_436; 3.42 in the assay with ECF26_4464; 5.57 with ECF01_3473; 3.46 and 2.7 with ECF25_1643; 2.74 with ECF17_1458. The fold repression with ECF02_915 was 29.2; in the assay with ECF11_987 it was 3.88; with ECF12_807, 9.79; with ECF20_992, 4.44; with ECF17_1691, 2.73; in the assay with ECF31_34 it was 3.89. In addition, the fold repression worked out at 4.49 with ECF22_1147, 4.42 with ECF14_1324 and 4.13 with ECF22_4450.

B3: AS22_4450 (protein)
chain: MELDDMKHAWQTLEQRLDQQAAQTGQLLGVVHEETVRSSLRPLWVAQTAQLLCALALAIVSARSWIPHTDQPVAVIGGVLLQAWCMALAISAMVQLQLLTQFNVAGPLLRTQHALARLRRWRTRVAPWLGVAFWVLWIAVADALWRALTGQTLPTDWLVLNLLVGVAGGIGTWLGFRRLQRAQHPWLERIDRAHAGTGVIRAERMLEEIARFQRD
As to B3, the fold repression was 1.35 with ECF35_3582; 1.41 in the assay with ECF15_436; 2.51 with ECF26_4464; 1.32 with ECF01_3473; 1.63 and 1.34 in the assay with ECF25_1643; 1.23 in the assay with ECF17_1458. For the same molecule, the fold repression with ECF02_915 turned out to be 2.12; with ECF11_987, 1.89; with ECF12_807 it was 1.67; with ECF20_992, 1.54; in the assay with ECF17_1691, 1.52; with ECF31_34, 1.48. In addition, the fold repression with ECF22_1147 came to 5.73; in the assay with ECF14_1324 it was 2.85; with ECF22_4450, 12.7.

B4: AS22_1147 (protein)
chain: MELDDIAVAWRSLEQRLDQHAALAGQVLGDLRSHAARAHLRPLWLSQSAQLLCAIALSGLVAHSWLAFPEQAAAIVGGVLLQIWCVALAASAARQLWLLSQLDFARPLLQTQRALAQLRRWRTRVAPWLGVAFWVLWVAVADAAWRALTGRSLPYAWLLCNLLVGVLGGIGTWLGYRRLQRSGHPWLERLDTVHAGRSVARTETLLEQIARFQRE
Regarding B4, the fold repression with ECF35_3582 is 1.94; in the assay with ECF15_436, 3.01; in the assay with ECF26_4464, 3.82; with ECF01_3473, 3.03; with ECF25_1643, 2.46 and 1.99; with ECF17_1458, 2.2. For the same molecule, the fold repression with ECF02_915 came out at 3.59; with ECF11_987, 3.16; with ECF12_807, 3.45; with ECF20_992 it was 2.35; with ECF17_1691 it was 1.74; in the assay with ECF31_34, 2.31. Also, the fold repression was determined as 6.19 with ECF22_1147, 4.18 in the assay with ECF14_1324 and 35.7 in the assay with ECF22_4450.

B5: AS25_1643_cl43 (protein)
chain: MTTDSNFNDPCRRQFSRDLPQKMARHTNEATGAMDMVKRDRFELLSAYLGGEVTAAERRQVEDWPANDVAVQRLYSRLLKLRQGIRTMPIPTAQQSPETTAEQVFAKVNRRSRLAWKLGGAAVAACVIGAVTNWLPGRQTGIPQLAQQPQEQPTQAVTTPDALPMIALNNPVIEIPKAAVASPTKFIQPQPQLGEIPPDIN
B5: the fold repression was 1.57 with ECF35_3582; 1.2 with ECF15_436; 6.66 in the assay with ECF26_4464; 2.75 with ECF01_3473; 4.28 and 3.89 in the assay with ECF25_1643; 2.2 with ECF17_1458. Moreover, the fold repression with ECF02_915 was 6.67; in the assay with ECF11_987 it was 2.43; with ECF12_807, 4.23; in the assay with ECF20_992 it was 1.99; with ECF17_1691, 1.92; in the assay with ECF31_34 it was 1.58. Also, the fold repression with ECF22_1147 amounted to 5.45; with ECF14_1324, 1.77; in the assay with ECF22_4450, 3.35.
